Assay results reported in patent US20110053865A1 (Ablynx, published 2011).
Positions count from the first letter of the chain named. Values joined by “and” are separate entries in the source; they are usually repeats but may differ in a detail not shown here. Equal values may be shown once. Read-outs that look alike come from different tables or passages of the source.

What was measured:
[1] = biological target: T1, cynomolgus IL-23 (cynomolgus); test: SPR Biacore, cyno IL-23 on chip
T1 construct: also called cyno IL-23; cIL-23

[2] = biological target: T2, recombinant human IL-23 (p19/p40) (human, UniProt Q9NPF7 20-189; P29460 23-328); test: SPR Biacore, hIL-23 on chip
T2 construct: Bought heterodimer (R&D Systems or eBioscience); biotinylated in the alpha-screens; also called hIL-23
T2 sequence (looked up) 1: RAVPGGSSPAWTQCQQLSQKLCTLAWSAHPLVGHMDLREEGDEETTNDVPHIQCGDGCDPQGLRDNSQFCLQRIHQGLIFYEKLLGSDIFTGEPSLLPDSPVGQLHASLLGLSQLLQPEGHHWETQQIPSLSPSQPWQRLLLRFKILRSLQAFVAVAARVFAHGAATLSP
T2 sequence (looked up) 2: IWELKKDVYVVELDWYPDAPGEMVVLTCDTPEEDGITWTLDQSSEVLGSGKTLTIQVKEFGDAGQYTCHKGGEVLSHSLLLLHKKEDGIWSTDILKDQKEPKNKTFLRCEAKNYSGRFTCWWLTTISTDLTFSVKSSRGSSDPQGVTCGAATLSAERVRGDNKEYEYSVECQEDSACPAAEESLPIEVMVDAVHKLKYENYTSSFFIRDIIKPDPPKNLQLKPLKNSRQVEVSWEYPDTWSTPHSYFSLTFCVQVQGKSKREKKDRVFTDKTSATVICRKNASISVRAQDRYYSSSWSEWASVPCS
Method: Nanobody binding was assessed at one concentration (100 nM). Each Nanobody was injected for 4 minutes at a flow rate of 45 μl/min to allow binding to chip-bound antigen. Next, binding buffer without Nanobody was sent over the chip at the same flow rate to allow spontaneous dissociation of bound Nanobody.

[3] = biological target: T1, cynomolgus IL-23; test: alpha-screen, cIL-23/IL-23R
[4] = biological target: T2, recombinant human IL-23 (p19/p40); test: alpha-screen, hIL-23/IL-23R
[5] = biological target: T2, recombinant human IL-23 (p19/p40); test: SPR Biacore 3000, hIL-23 on chip
Method: Binding kinetics of the second round variants are in depth analysed by Surface Plasmon Resonance (Biacore 3000). […] Nanobody binding was assessed at one concentration (100 nM). Each Nanobody was injected for 4 minutes at a flow rate of 45 μl/min to allow binding to chip-bound antigen. Next, binding buffer without Nanobody was sent over the chip at the same flow rate to allow spontaneous dissociation of bound Nanobody.

[6] = biological target: T2, recombinant human IL-23 (p19/p40); test: cell-based or functional assay
[7] = biological target: T1, cynomolgus IL-23; test: cell-based or functional assay
[8] = biological target: T2, recombinant human IL-23 (p19/p40); test: SPR Biacore, hIL-23
[9] = biological target: T2, recombinant human IL-23 (p19/p40); test: SPR Biacore, hIL-23; remark: listed apart in the source
[10] = biological target: T2, recombinant human IL-23 (p19/p40); test: cell-based or functional assay; remark: listed apart in the source
[11] = biological target: T2, recombinant human IL-23 (p19/p40); test: cell-based or functional assay; remark: listed apart in the source
[12] = biological target: T1, cynomolgus IL-23; test: cell-based or functional assay; remark: listed apart in the source
[13] = biological target: T2, recombinant human IL-23 (p19/p40); test: cell-based or functional assay; remark: listed apart in the source
[14] = biological target: T2, recombinant human IL-23 (p19/p40); test: cell-based or functional assay; remark: listed apart in the source
[15] = biological target: T1, cynomolgus IL-23; test: cell-based or functional assay; remark: listed apart in the source
[16] = biological target: T2, recombinant human IL-23 (p19/p40); test: cell-based or functional assay; remark: listed apart in the source
[17] = biological target: T2, recombinant human IL-23 (p19/p40); test: cell-based or functional assay; remark: listed apart in the source
[18] = biological target: T2, recombinant human IL-23 (p19/p40); test: cell-based or functional assay; remark: listed apart in the source
[19] = biological target: T2, recombinant human IL-23 (p19/p40); test: 'potency assay', not specified (probably the inhibition ELISA of Example 34)
[20] = biological target: T2, recombinant human IL-23 (p19/p40); test: comp alpha-screen hIL-23
[21] = biological target: T2, recombinant human IL-23 (p19/p40); test: SPR Biacore, hIL-23; remark: listed apart in the source
[22] = biological target: T2, recombinant human IL-23 (p19/p40); test: SPR Biacore, hIL-23; remark: listed apart in the source
[23] = biological target: T2, recombinant human IL-23 (p19/p40); test: SPR Biacore, eBiosc hIL-23

B1: P23IL 84G1 (VHH)
VHH: EVQLVESGGGMVQAGGSLRLSCTASGLTDNSYAMGWFRRAPGKEREFLTGLTLSGGSTYYADSVKGRFTTSRDSQKNTVSLQMNSLKPEDTAVYYCAANRFGYGSAAYTPDNYNYWAQGTQVTVSS
notes: p40- Nanobody
Binder B1 has a koff [1] of 0.0024 s⁻¹ and a koff [2] of 0.0002 s⁻¹.

B2: P23IL119A3v16 (VHH)
VHH: EVQLLESGGGLVQPGGSLRLSCAASGRIFSLPASGNIFNLLTIAWYRQAPGKGRELVATINSGSRTYYADSVKGRFTISRDNSKKTLYLQMNSLRPEDTAVYYCQTSGSGSPNFWGQGTLVTVSS
notes: Final humanization variant of 119A3
For B2, the IC50 [3] was 0.7 nM, the IC50 [4] was 1.24 nM and the koff [5] was 0.0055 s⁻¹ and 0.0019 s⁻¹. The “IC50, splenocyte assay hIL-23” value [6] was 45.1 nM and the “IC50, splenocyte assay cIL-23” value [7] was 82.6 nM.

B3: P23IL81A12 (VHH)
VHH: EVQLVESGGGLVQAGGSLRLSCAASGRTLSSYAMGWFRQAPGKEREFVARISQGGTAIYYADSVKGRFTISRDNAKNTVYLQMNSLKPEDTAVYYCAKDPSPYYRGSAYLLSGSYDSWGQGTQVTVSS
notes: p19- Nanobody
Work on B3 yielded a Kd [8] of 0.38 nM, a koff [8] of 0.00021 s⁻¹ and a kon [8] of 560000 M⁻¹ s⁻¹. For the same binder, the koff [9] was 0.00022 s⁻¹.

B4: P23IL81A12-BASIC (VHH)
VHH: B3 VHH with A14P, V79L, K87R, Q123L
B4 was tested, and the koff [9] was 0.00024 s⁻¹.

B5: P23IL119A3-35GS-81G2-GGGC-PEG40 linear (bispecific antibody)
chain: EVQLVESGGGLVQAGGSLRLSCAASGRIFSLPASGNIFNLLTIAWHRQAPGMQRELVATINSGSRTNYADSVKGRFTISRDNAQKTVYLQMNNLKPEDTAVYYCQTSGSGSPNFWGQGTQVTVSSGGGGSGGGGSGGGGSGGGGSGGGGSGGGGSGGGGSEVQLVESGGGLVQPGGSLRLSCIASGLPFSTKSMGWFRQAPGKEREFVARISPGGTSRYYGDFVKGRFAISRDNAKNTTWLQMNSLKAEDTAVYYCASGERSTYIGSNYYRTNEYDYWGTGTQVTVSSGGGC
modifications: linear mPEG40 (maleimide) on the C-terminal Cys of GGGC
For B5, the “IC50, BAF3 proliferation assay, 76 pM hIL-23” value [10] was 58.5 pM, the “IC50, splenocyte assay, 19 pM hIL-23” value [11] was 7.1 pM and the “IC50, splenocyte assay, 3.8 pM cIL-23” value [12] was 4.7 pM. For the same binder, the “IC50, BA/F3 proliferation assay, 76 pM hIL-23” value [13] was 71 pM, the “IC50, splenocyte assay, 19 pM hIL-23” value [14] was 7.1 pM and the “IC50, splenocyte assay, 3.8 pM cIL-23” value [15] was 4.7 pM.

B6: P23IL119A3-35GS-81G2-GGGC-PEG40 branched (bispecific antibody)
chain: B5 chain
modifications: branched mPEG40 (maleimide) on the C-terminal Cys of GGGC
With B6 the “IC50, BAF3 proliferation assay, 76 pM hIL-23” value [10] was 61.2 pM, the “IC50, splenocyte assay, 19 pM hIL-23” value [11] was 5.6 pM and the “IC50, splenocyte assay, 3.8 pM cIL-23” value [12] was 5.3 pM.

B7: P23IL-121A2-35GS-119G7 (bispecific antibody)
chain: EVQLVESGGGLVQAGGSLRLSCAASGSIFNFNYMGWFRQAPGKEREFVAAIRWSGSSTYYADSVKGRFTISRDDAKNTVALQMNSLKPEDTAIYYCALRKGIPYSTSDRVIKGVNDYDYWGQGTQVTVSSGGGGSGGGGSGGGGSGGGGSGGGGSGGGGSGGGGSEVQLVESGGGLVQAGGSLTLSCAVSGLTFNNYAMGWFRQVPGKEREFVAAISRSGLRTFYSDSVKGRFTISRDSAKSTVYVQMNNLKPEDTAVYFCAADRRTYYSEGPSLTDTLRYDYWGQGTQVTVSS
With B7 the “IC50, splenocyte assay, 37 pM hIL-23” value [16] was 42 pM, the “IC50, splenocyte assay (mIL-17)” value [17] was 0.03 to 0.06 nM and the “IC50, splenocyte assay, 19 pM hIL-23” value [11] was 26 pM.

B8: P23IL-121A2-9GS-119G7 (bispecific antibody)
chain: EVQLVESGGGLVQAGGSLRLSCAASGSIFNFNYMGWFRQAPGKEREFVAAIRWSGSSTYYADSVKGRFTISRDDAKNTVALQMNSLKPEDTAIYYCALRKGIPYSTSDRVIKGVNDYDYWGQGTQVTVSSGGGGSGGGSEVQLVESGGGLVQAGGSLTLSCAVSGLTFNNYAMGWFRQVPGKEREFVAAISRSGLRTFYSDSVKGRFTISRDSAKSTVYVQMNNLKPEDTAVYFCAADRRTYYSEGPSLTDTLRYDYWGQGTQVTVSS
With B8 the “IC50, splenocyte assay, 37 pM hIL-23” value [16] was 4760 pM.

B9: P23IL-121A2-35GS-81G2 (bispecific antibody)
chain: EVQLVESGGGLVQAGGSLRLSCAASGSIFNFNYMGWFRQAPGKEREFVAAIRWSGSSTYYADSVKGRFTISRDDAKNTVALQMNSLKPEDTAIYYCALRKGIPYSTSDRVIKGVNDYDYWGQGTQVTVSSGGGGSGGGGSGGGGSGGGGSGGGGSGGGGSGGGGSEVQLVESGGGLVQPGGSLRLSCIASGLPFSTKSMGWFRQAPGKEREFVARISPGGTSRYYGDFVKGRFAISRDNAKNTTWLQMNSLKAEDTAVYYCASGERSTYIGSNYYRTNEYDYWGTGTQVTVSS
B9 was tested, and the “IC50, splenocyte assay (mIL-17)” value [17] was roughly 0.09 nM, the “IC50, splenocyte assay, 19 pM hIL-23” value [11] was 154 pM and the “IC50, splenocyte assay, 19 pM hIL-23” value [18] was 94 pM.

B10: P23IL 22D10 (VHH)
VHH: EVQLVESGGGLVQAGASLRLSCAASGRTFRSYNMGWLRQAPGKEREFVATISWNAGIPYYADSVKGRFTISRDNAKNTVYLQMNSLKPEDTAVYYCAASNSWSSSARFYDYWGQGTQVTVSS
notes: p40- Nanobody
For B10, the koff [1] was 0.0001 s⁻¹ and the koff [2] was 0.001 s⁻¹.

B11: P23IL37D5v16 (VHH)
VHH: EVQLLESGGGLVQPGGSLRLSCAASGFTLDYLAIGWFRQAPGKGREGVSCVSSSGQYTYYADSVKGRFTISRDNSKNTVYLQMNSLRPEDTAVYYCATDPECYRVRGYYNGEYDYWGQGTLVTVSS
notes: Humanization variant of 37D5
B11 was tested, and the IC50 [19] was 0.0888 nM and the IC50 [20] was 0.044 nM.

B12: P23IL-121A2 (VHH)
VHH: EVQLVESGGGLVQAGGSLRLSCAASGSIFNFNYMGWFRQAPGKEREFVAAIRWSGSSTYYADSVKGRFTISRDDAKNTVALQMNSLKPEDTAIYYCALRKGIPYSTSDRVIKGVNDYDYWGQGTQVTVSS
In the case of B12, the “IC50, splenocyte assay (mIL-17)” value [17] is reported as roughly 1.5 nM.

B13: P23IL81G2-BASIC (VHH, name in Kabat numbering)
VHH: EVQLVESGGGLVQPGGSLRLSCIASGLPFSTKSMGWFRQAPGKGREFVARISPGGTSRYYGDFVKGRFAISRDNAKNTTWLQMNSLKAEDTAVYYCASGERSTYIGSNYYRTNEYDYWGTGTLVTVSS
notes: The sentence giving the two substitutions prints 'P23IL81A12basic' within the 81G2 paragraph
Work on B13 yielded a koff [21] of 0.00032 s⁻¹.

B14: P23IL81G2v11 (VHH)
VHH: B13 VHH with V5L, I23A, A49S, A69T, A75S, T79L, W80Y, K87R, T120Q
notes: Final humanization variant of 81G2
With B14 the koff [22] was 0.00031 s⁻¹, the kon [22] was 610000 M⁻¹ s⁻¹ and the Kd [23] was 0.51 nM.

B15: P23IL81G2 (VHH)
VHH: B13 VHH with G44E, L123Q
notes: p19- Nanobody
With B15 the koff [22] was 0.00039 s⁻¹, the kon [22] was 520000 M⁻¹ s⁻¹ and the koff [21] was 0.00034 s⁻¹. It also gave a Kd [23] of 0.75 nM.
